In patent US7339039B2, “Nucleic acids encoding receptor recognition factors, and methods of use thereof” (The Rockfeller University, priority 1992, dated 2008):

Tested on: Stat84 and Stat91L homodimers
Experiment: Dissociation-reassociation analysis (gel mobility shift with GAS probe)
Assay type: biochemical, human
Settings: GST fusion protein 0.5 to 5 μM
Protocol: Gel Mobility Shift Assays. Gel mobility shift assays were carried out as described (34). An oligonucleotide corresponding to the GAS element from the human FcγRI receptor gene (Pearse et al. 1993) was synthesized and used for gel mobility shift assays. The oligonucleotide has the following sequence: 5′[…]3′ (SEQ. ID NO:17).
Dissociation-reassociation Analysis. Extracts were incubated with various concentrations of peptides or fusion proteins, and ^32P-labeled GAS oligonucleotide probe in gel shift buffer was then added to promote the formation of protein-DNA complex followed by mobility shift analysis.
Dimerization of Stat91 Involves Phosphoryrosyl Peptide and SH2 Interactions. Based on the results described above, we devised a dissociation-reassociation assay in the absence of guanidium hydrochloride to explore the possible nature of interactions involved in dimer formation (FIG. 20). When the short and the long forms of a homodimer are mixed with a dissociating agent (e.g., a peptide containing the putative dimerization domain), the subunits of the dimer should dissociate (in a concentration dependent fashion) due to the interaction of the agent with the dimerization domain(s) of the protein. […] At high concentration of the dissociating agent, subunits of the dimer may not be able to re-form and no DNA-protein complexes would be detected (FIG. 20).

Stat84 and Stat91L homodimers, sequence (P42224 2-712 limits assumed): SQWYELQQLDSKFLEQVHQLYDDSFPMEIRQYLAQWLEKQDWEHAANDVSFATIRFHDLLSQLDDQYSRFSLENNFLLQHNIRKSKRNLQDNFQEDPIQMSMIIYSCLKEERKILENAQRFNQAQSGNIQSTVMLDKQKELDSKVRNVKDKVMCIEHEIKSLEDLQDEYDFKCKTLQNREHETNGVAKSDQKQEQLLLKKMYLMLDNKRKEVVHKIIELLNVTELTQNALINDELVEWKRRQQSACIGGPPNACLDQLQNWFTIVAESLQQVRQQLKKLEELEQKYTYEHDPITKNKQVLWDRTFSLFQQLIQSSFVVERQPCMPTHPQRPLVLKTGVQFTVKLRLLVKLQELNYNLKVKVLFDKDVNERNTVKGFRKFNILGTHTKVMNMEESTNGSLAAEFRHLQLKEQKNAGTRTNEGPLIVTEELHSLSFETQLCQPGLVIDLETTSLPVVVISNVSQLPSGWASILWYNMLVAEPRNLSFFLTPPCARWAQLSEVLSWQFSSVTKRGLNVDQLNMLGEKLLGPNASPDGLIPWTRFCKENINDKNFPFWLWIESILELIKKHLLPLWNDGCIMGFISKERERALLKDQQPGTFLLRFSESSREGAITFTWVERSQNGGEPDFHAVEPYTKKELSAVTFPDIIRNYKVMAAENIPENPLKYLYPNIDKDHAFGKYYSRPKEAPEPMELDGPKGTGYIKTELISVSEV

B1: GST-91SH2: GST fusion protein encoding amino acids 573 to 672 of Stat91 (protein)
chain: WNDGCIMGFISKERERALLKDQQPGTFLLRFSESSREGAITFTWVERSQNGGEPDFHAVEPYTKKELSAVTFPDIIRNYKVMAAENIPENPLKYLYPNID
modifications: left off: a dimerising Fc or GST
notes: GST fusion protein encoding amino acids 573 to 672 of Stat91
formation of heterodimer / exchange of subunits between Stat84 and Stat91L homodimers: promoted the formation of a heterodimer
